What is called Kd is the concentration at which binding is half-saturated.

Drawing on publication PMC4881898, “CD14 Is a Co-Receptor for TLR4 in the S100A9-Induced Pro-Inflammatory Response in Monocytes” (PLoS ONE, 2016), this text covers Kd for one molecule.

The test has as its target T1, recombinant human CD14 (human, UniProt P08571 20-345).
T1 construct: CD14, human, recombinant soluble protein from CHO cells; Check this against the vendor data sheet; source: bought: R&D Systems (cat no 383-CD-050/CF), derived from CHO cells
T1 sequence (looked up): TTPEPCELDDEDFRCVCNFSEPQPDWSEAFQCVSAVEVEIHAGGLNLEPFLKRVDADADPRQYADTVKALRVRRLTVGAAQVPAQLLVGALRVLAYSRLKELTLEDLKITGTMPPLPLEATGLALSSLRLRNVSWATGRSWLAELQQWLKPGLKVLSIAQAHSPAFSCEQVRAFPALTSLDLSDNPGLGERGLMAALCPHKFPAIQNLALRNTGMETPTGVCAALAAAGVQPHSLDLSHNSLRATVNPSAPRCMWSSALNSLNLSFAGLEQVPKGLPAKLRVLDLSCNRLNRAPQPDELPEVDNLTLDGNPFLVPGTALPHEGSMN
The experiment in a line: SPR; Biacore 3000; S100A8 and S100A9 immobilised in separate flow cells on a CM5 chip by amine coupling, to the same level; CD14 injected at 50 to 800 nM for 2 min at 30 ul/min in HBS-P (10 mM HEPES, 0.15 M NaCl, pH 7.4, 0.005% P20) with 1 mM Ca2+ and 20 uM Zn2+; regeneration with 3 mM EDTA; sensorgrams fit to a 1:1 model. The following applies: both partners purified. Background: Surface plasmon resonance follows binding to a sensor surface in real time, without labels.

B1: recombinant human S100A9 (natural protein, UniProt P06702 1-114, looked up)
chain: MTCKMSQLERNIETIINTFHQYSVKLGHPDTLNQGEFKELVRKDLQNFLKKENKNEKVIEHIMEDLDTNADKQLSFEEFIMLMARLTWASHEKMHEGDEGPGHHHKPGLGEGTP
notes: S100A9, human, recombinant; The discussion says the recombinant huS100A9 was produced in E. coli; Amine-coupled to the CM5 chip in the SPR experiment; also called huS100A9; source: recombinant, produced at Active Biotech AB, Lund, Sweden
Take B1: the dissociation constant Kd was 100 to 200 nM.
